In patent US20120316071A1 (published 2012):
Blank lines part the entries; values can stand above or below the binder they belong to.

Legend:
[1] = molecular target: T1, rHuman IGF-1 sR, (IGF-1 sR), CF (R&D Systems Cat#391-GR) (human, UniProt P08069 31-932); assay: Multispot ECL (MSD) assay, antigen spotted on plate, Fab at 1.56 µM; blank spot 4357
T1 construct: Bought recombinant soluble receptor; also called insulin-like growth factor-1 soluble receptor

[2] = molecular target: T2, rHuman P-Cadherin/Fc Chimera, CF (R&D Systems Cat#861-PC) (human, UniProt P22223 108-654); assay: Multispot ECL (MSD) titration; antigen spotted on plate; Fab 232.5 nM; blank spot 460
T2 construct: Bought Fc chimera; Fc part of the bought chimera not given

[3] = molecular target: T3, rHuman CD44/Fc Chimera, CF (R&D Systems Cat#3660-CD) (human, UniProt P16070 21-220); assay: as above
T3 construct: Bought Fc chimera; Fc part of the bought chimera not given

[4] = molecular target: T4, Recombinant Human DLL4 (R&D Systems Cat#1506-D4/CF) (human, UniProt Q9NR61 27-524); assay: as above
T4 construct: Bought recombinant protein; also called delta-like protein 4; rHuman DLL4

[5] = molecular target: T5, rHuman ErbB2/Fc Chimera, CF (R&D Systems Cat#1129-ER) (human, UniProt P04626 23-652); assay: as above
T5 construct: Bought Fc chimera; also called human epidermal growth factor 2 receptor; Fc part of the bought chimera not given

[6] = molecular target: T6, rHuman IGF-1 sR (IGF-1 sR), CF (R&D Systems Cat#391-GR) (human, UniProt P08069 31-932); assay: as above
T6 construct: Bought soluble receptor; also called insulin-like growth factor-1 soluble receptor

[7] = molecular target: T7, rHuman Erythropoietin R/Fc Chimera, CF (R&D Systems Cat#963-ER) (human, UniProt P19235 25-250); assay: as above
T7 construct: Bought Fc chimera; also called EPO R/Fc; EPO R; Fc part of the bought chimera not given
T7 sequence (looked up): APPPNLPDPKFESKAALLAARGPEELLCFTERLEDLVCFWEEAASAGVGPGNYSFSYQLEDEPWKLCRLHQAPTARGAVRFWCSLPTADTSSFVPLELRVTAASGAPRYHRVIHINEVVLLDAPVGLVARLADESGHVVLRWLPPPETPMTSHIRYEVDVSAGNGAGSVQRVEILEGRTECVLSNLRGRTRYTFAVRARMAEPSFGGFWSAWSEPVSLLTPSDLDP

[8] = molecular target: T8, rHuman Notch-1/Fc Chimera, CF (R&D Systems Cat#3647-TK) (human, UniProt P46531 19-526); assay: as above
T8 construct: Bought Fc chimera; Fc part of the bought chimera not given

[9] = molecular target: T9, rHuman IGF-1 sR, (IGF-1 sR), CF (R&D Systems Cat#391-GR) (human, UniProt P08069 31-932); assay: MSD multispot ECL, antigen spotted on plate, Fab 176.3 nM; blank spot 346
T9 construct: Bought from R&D Systems and called a soluble receptor; also called insulin-like growth factor-1 soluble receptor

[10] = molecular target: T10, rHuman P-Cadherin/Fc Chimera, CF (R&D Systems Cat#861-PC) (human, UniProt P22223 108-654); assay: as above
T10 construct: Bought from R&D Systems; not shown: Fc of the bought chimera

[11] = molecular target: T11, rHuman HGF R/c-MET/Fc Chimera, CF (R&D Systems Cat#358-MT/CF) (human, UniProt P08581 25-932); assay: as above
T11 construct: Bought from R&D Systems; also called HGF R/Fc; hepatocyte growth factor receptor (HGF R/c-Met); not shown: Fc of the bought chimera

[12] = molecular target: T12, rHuman Erythropoietin R/Fc Chimera, CF (R&D Systems Cat#963-ER) (human, UniProt P19235 25-250); assay: as above
T12 construct: Bought from R&D Systems; also called EPO R/Fc; Epo R/Fc chimera; not shown: Fc of the bought chimera
T12 sequence (looked up): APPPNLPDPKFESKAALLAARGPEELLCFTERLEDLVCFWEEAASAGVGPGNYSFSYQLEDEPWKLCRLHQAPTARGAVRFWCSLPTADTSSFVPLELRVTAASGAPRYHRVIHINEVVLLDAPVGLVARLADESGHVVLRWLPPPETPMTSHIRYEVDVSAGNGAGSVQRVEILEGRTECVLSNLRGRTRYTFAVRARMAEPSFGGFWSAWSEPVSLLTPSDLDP

[13] = molecular target: T13, rHuman ErbB2/Fc Chimera, CF (R&D Systems Cat#1129-ER) (human, UniProt P04626 23-652); assay: as above
T13 construct: Bought from R&D Systems; also called human epidermal growth factor 2 receptor (ErbB2); not shown: Fc of the bought chimera

[14] = molecular target: T14, rHuman Notch-1/Fc Chimera, CF (R&D Systems Cat#3647-TK) (human, UniProt P46531 19-526); assay: as above
T14 construct: Bought from R&D Systems; not shown: Fc of the bought chimera

[15] = molecular target: T15, rHuman EGF R/Fc Chimera, CF (R&D Systems Cat#344-ER) (human, UniProt P00533 25-645); assay: as above
T15 construct: Bought from R&D Systems; also called epidermal growth factor receptor (EGF R); not shown: Fc of the bought chimera

[16] = molecular target: T16, Recombinant Human DLL4 (R&D Systems Cat#1506-D4/CF) (human, UniProt Q9NR61 27-524); assay: as above
T16 construct: Bought from R&D Systems; also called rHuman DLL4; delta-like protein 4

[17] = molecular target: T17, rHuman CD44/Fc Chimera, CF (R&D Systems Cat#3660-CD) (human, UniProt P16070 21-220); assay: as above
T17 construct: Bought from R&D Systems; not shown: Fc of the bought chimera

[18] = molecular target: T11, rHuman HGF R/c-MET/Fc Chimera, CF (R&D …); assay: MSD multispot ECL, antigen spotted on plate, Fab 705 nM; blank spot 483

T11 sequence (P08581 25-932, change not shown): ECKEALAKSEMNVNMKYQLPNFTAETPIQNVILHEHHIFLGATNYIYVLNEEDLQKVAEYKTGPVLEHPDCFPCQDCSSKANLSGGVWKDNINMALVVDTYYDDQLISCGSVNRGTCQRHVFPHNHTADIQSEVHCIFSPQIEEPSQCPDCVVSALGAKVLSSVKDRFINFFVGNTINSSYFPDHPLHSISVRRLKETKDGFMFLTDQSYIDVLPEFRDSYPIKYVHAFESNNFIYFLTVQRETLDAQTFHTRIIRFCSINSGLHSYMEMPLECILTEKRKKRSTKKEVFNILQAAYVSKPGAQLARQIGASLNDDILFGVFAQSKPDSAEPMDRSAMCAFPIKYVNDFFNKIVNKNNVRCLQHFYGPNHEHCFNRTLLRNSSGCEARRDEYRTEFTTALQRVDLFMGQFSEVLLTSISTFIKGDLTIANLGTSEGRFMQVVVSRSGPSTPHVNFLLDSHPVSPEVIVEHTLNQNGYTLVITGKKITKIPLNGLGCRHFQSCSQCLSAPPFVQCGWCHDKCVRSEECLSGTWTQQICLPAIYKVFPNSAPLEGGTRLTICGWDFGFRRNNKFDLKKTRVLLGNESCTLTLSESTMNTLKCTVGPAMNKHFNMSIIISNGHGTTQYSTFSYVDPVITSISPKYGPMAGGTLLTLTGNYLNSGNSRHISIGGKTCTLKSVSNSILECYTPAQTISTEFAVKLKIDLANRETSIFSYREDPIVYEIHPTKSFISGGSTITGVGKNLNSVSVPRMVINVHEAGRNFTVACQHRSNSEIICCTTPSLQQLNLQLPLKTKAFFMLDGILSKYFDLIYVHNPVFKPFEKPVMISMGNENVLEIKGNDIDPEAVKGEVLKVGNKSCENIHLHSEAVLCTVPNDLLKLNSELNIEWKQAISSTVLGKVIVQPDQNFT

- ECL signal [1]: 6910
B1: Fab VH1-46_IGHD7-27*01_IGHJ2*01 & L6_IGKJ1*01 (Fab, V domains shown)
VH: QVQLVQSGAEVKKPGASVKVSCKASGYTFTSYYMHWVRQAPGQGLEWMGIINPSGGSTSYAQKFQGRVTMTRDTSTSTVYMELSSLRSEDTAVYYCARANWGYWYFDLWGRGTLVTVSS
VL: not shown
notes: Germline Fab made in E. coli; VH was cloned in Plasmid A (CH1 constant region, His6 and Flag tags) and the kappa VL in Plasmid C (kappa CL); Only the variable domains are tied to this Fab by name

- ECL signal [2]: 655
- ECL signal [3]: 607
- ECL signal [4]: 3590
- ECL signal [5]: 779
- ECL signal [6]: 569
- ECL signal [7]: 1470
- ECL signal [8]: 778
B2: Fab VH1-46_IGHD6-13*01_IGHJ4*01 & O1_IGKJ1*01 (Fab, V domains shown)
VH: QVQLVQSGAEVKKPGASVKVSCKASGYTFTSYYMHWVRQAPGQGLEWMGIINPSGGSTSYAQKFQGRVTMTRDTSTSTVYMELSSLRSEDTAVYYCAREGYSSSWYDYFDYWGQGTLVTVSS
VL: DIVMTQTPLSLPVTPGEPASISCRSSQSLLDSDDGNTYLDWYLQKPGQSPQLLIYTLSYRASGVPDRFSGSGSGTDFTLKISRVEAEDVGVYYCMQRIEFPSWTFGQGTKVEIKR
notes: Germline library Fab expressed in E. coli; VH was cloned into Plasmid A (CH1 constant region, His6 and Flag tags); The kappa VL was cloned into Plasmid C (kappa CL)

- ECL signal [9]: 393
- ECL signal [10]: 532
- ECL signal [11]: 418
- ECL signal [12]: 3520
- ECL signal [13]: 448
- ECL signal [14]: 664
- ECL signal [15]: 428
- ECL signal [16]: 460
- ECL signal [17]: 376
- ECL signal [18]: 839
B3: Fab VH1-46_IGHD3-10*01_IGHJ4*01 & B3_IGKJ1*01 (Fab, V domains shown)
VH: QVQLVQSGAEVKKPGASVKVSCKASGYTFTSYYMHWVRQAPGQGLEWMGIINPSGGSTSYAQKFQGRVTMTRDTSTSTVYMELSSLRSEDTAVYYCAREYYYGSGSYYNDYFDYWGQGTLVTVSS
VL: not shown
notes: Tested as a Fab made in E. coli; VH was cloned into Plasmid A (CH1 constant region, His6 and Flag tags); The kappa VL was cloned into Plasmid C (kappa CL)
